Source: PMC5059453, “Structure of ubiquitylated-Rpn10 provides insight into its autoregulation mechanism” (Nature Communications, 2016)

T1: GST-Rpn10 vWA domain (residues 1-189) (S. cerevisiae, UniProt P38886 1-189)
T1 construct: Rpn10, S. cerevisiae, N-terminal vWA (Von Willebrand factor type A) domain, residues 1-189 (made from pGST-Rpn10 by deleting residues 190-268); also called wild-type vWA; source: expressed and purified as GST-fusion protein, size exclusion chromatography before each experiment
T1 sequence (looked up): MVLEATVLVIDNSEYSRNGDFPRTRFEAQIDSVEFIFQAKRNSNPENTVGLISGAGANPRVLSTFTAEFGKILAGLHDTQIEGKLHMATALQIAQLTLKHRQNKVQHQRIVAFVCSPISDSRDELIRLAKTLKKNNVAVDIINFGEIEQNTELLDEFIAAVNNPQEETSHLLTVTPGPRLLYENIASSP

T2: GST-Rpn10 (full-length Rpn10) (S. cerevisiae, UniProt P38886 1-268)
T2 construct: Rpn10, proteasomal ubiquitin receptor, S. cerevisiae; open reading frame encodes residues 1-268; Plasmid pGST-Rpn10; also called Rpn10 wt; wild-type full-length Rpn10; source: expressed and purified as GST-fusion protein, size exclusion chromatography before each experiment
T2 sequence (looked up): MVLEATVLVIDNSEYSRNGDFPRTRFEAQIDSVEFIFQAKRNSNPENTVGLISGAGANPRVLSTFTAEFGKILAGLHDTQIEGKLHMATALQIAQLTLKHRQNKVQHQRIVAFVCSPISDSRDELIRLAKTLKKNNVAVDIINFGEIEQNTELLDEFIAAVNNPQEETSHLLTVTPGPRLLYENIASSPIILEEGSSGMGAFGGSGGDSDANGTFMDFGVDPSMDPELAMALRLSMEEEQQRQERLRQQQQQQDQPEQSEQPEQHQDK

B1: free mono-ubiquitin (wild type) (natural protein)
chain: not shown
notes: ubiquitin (Ub), the mature 76-residue protein; also called Ub wt; source: purified, size exclusion chromatography before each experiment
B2: GST-Rpn10 UIM (domain or fragment, S. cerevisiae, UniProt P38886 223-242, looked up)
chain: SMDPELAMALRLSMEEEQQR
notes: also called its UIM alone; source: expressed and purified as GST-fusion protein, size exclusion chromatography before each experiment

Assays:
Experiment in all cases: SPR; α-GST antibody immobilized on a CM5 chip captures GST-Rpn10 derivatives (ligands); free mono-Ub variants as analytes; 10 mM HEPES pH 7.0, 150 mM NaCl, 0.005% polysorbate-20, 25 °C; triplicate; single-site-binding model
Conditions in all cases: both partners purified
[1] = target: T1, GST-Rpn10 vWA domain (residues 1-189)
[2] = target: T2, GST-Rpn10 (full-length Rpn10)
[3] = target: B1

Row | Kd [1] | Kd [2] | Kd [3] | Binder
1 | ~330 µM | ~270 µM |  | B1
2 |  |  | ~180 µM | B2
